Experimental data published in PMC9839713, “Arabidopsis DXO1 activates RNMT1 to methylate the mRNA guanosine cap” (Nature Communications, 2023).

Target: T1, His-DXO1 (Arabidopsis thaliana, UniProt Q8RY73 1-544)
T1 construct: also called His-tagged DXO1; source: E. coli BL21 Rosetta, purified (Ni-NTA); not shown: His6, N-terminal, kept
Assay: pull-down; GST pull-down: 2 ug GST-RNMT1 with His-DXO1 or His-cDXO1 on GST agarose beads, 20 mM Tris-HCl pH 7.5, 100 mM NaCl, 1 mM DTT, 1 mM EDTA, 1 h; in the presence of RNase A; eluted with 10 mM GSH; blots with anti-His and anti-GST
Details: both partners purified

T1 sequence (Q8RY73 whole entry): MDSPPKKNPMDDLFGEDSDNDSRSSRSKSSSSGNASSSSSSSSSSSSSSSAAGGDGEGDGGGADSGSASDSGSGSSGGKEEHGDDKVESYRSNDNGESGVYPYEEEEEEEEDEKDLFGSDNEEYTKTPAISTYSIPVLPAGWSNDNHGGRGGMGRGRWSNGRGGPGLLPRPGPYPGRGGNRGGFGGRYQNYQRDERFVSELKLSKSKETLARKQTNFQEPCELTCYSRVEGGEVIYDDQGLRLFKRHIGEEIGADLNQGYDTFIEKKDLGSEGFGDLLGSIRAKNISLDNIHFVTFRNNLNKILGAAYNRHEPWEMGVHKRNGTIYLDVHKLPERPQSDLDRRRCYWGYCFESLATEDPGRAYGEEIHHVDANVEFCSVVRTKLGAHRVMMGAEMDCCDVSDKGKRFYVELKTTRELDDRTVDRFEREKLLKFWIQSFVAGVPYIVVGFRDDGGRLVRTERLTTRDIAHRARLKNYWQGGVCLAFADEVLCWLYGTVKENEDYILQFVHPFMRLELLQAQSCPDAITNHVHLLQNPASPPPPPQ

binding result: binds
B1: GST-RNMT1 (natural protein, Arabidopsis thaliana, UniProt Q9LHQ7 1-370, looked up)
chain: MKRGFSDSPSSSAPPPSSRFKSNPEGDSQFLEDETTKNFARKVADHYSRRTNQTLEEREASPIIHLKKLNNWIKSVLIQLYARPDDAVLDLACGKGGDLIKWDKARIGYYVGIDIAEGSIEDCRTRYNGDADHHQRRKKFSFPSRLLCGDCFEVELDKILEEDAPFDICSCQFAMHYSWTTEARARRALANVSALLRPGGVFIGTMPDANVIIKKLREAEGLEIGNSVYWIRFGEEYSQKKFKSSSPFGIEYVFHLEDAVDCPEWIVPFNVFKSLAEEYDLELVFVKNSHEFVHEYMKKPEFVELMRRLGALGDGSNDQSTLSADEWEAAYLYLSFVLRKRGESDGARRSGRRKNGKMNLSKDDVLYIDS
notes: The methods name a 'GST-DXO1' fusion in pGEX-4T-1 and RNMT1 in pET28a, while results, legend and pull-down methods use GST-RNMT1; In the functional rows the RNMT1 was the recombinant protein from pET28a (6X His); also called GST-tagged RNMT1; source: E. coli BL21 Rosetta, purified (GST agarose beads); not shown: GST, N-terminal, kept
